Measured values as given in patent US20040208873A1.

Target: recombinant human IL-8, 72 aa form (monocyte derived) (human) (UniProt P10145)
Assay: cell-based or functional assay

Sequence of recombinant human IL-8, 72 aa form (monocyte derived) (human) (P10145 28-99 limits assumed): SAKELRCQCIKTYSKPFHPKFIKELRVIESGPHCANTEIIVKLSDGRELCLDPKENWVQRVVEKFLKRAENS

expression level of CD11b on IL-8 stimulated PMN (MFI, flow cytometry): 2400 MFI | expression of CD62L on IL-8 stimulated PMN (MFI, flow cytometry): 150 MFI
Substance: irrelevant human isotype control antibody (Example 8)
